In test [1] the target is T1, IGF-1R (Mus musculus, UniProt Q60751).
T1 construct: MEF cells expressing full length, wild type IGF-1R; endogenous in cells; host or cells: MEF, and MEF knockout for β-arrestin1, β-arrestin2 or both
As to the kind of experiment: IGF-1R degradation in MEF cells (β-arrestin knockouts, Δ1245 IGF-1R), WB. In kind it is cell-based. To be noted: 24 h. The method, then:
(§1) Protein lysates were analyzed by WB for IGF-1R and GAPDH as a loading control. […] Data correspond to the mean±SEM from three independent experiments. (B,D) Cell viability of the CP-treated cells for 48 h, in the absence (SFM) or presence of serum, was evaluated by PrestoBlue reagent. […] Data correspond to the mean±SEM from three independent experiments.
(§2) Appropriate primary antibody was incubated overnight at 4° C.

The subject of test [2] is IGF-1R. The test is described as above. In kind it is cell-based, mouse. The settings on record: R− MEF expressing Δ1245 IGF-1R; over 48 h. The method, then:
as §1, §2

Test [3] has as its system IGF-1R, AKT and ERK phosphorylation. The test is described as follows: IGF-1R signaling activation in ES cell lines (WB for P-IGF-1R, P-AKT, P-ERK). In kind it is cell-based. The settings on record: serum starved ES cells.

This note sets out measurements from patent publication US20140335077A1, “Compositions and Methods for the Treatment of Cancer Using IGF-IR Antagonists and MAPK/ERK Inhibitors” (priority 2013, published 2014).

T1 sequence (Q60751 31-737 limits assumed): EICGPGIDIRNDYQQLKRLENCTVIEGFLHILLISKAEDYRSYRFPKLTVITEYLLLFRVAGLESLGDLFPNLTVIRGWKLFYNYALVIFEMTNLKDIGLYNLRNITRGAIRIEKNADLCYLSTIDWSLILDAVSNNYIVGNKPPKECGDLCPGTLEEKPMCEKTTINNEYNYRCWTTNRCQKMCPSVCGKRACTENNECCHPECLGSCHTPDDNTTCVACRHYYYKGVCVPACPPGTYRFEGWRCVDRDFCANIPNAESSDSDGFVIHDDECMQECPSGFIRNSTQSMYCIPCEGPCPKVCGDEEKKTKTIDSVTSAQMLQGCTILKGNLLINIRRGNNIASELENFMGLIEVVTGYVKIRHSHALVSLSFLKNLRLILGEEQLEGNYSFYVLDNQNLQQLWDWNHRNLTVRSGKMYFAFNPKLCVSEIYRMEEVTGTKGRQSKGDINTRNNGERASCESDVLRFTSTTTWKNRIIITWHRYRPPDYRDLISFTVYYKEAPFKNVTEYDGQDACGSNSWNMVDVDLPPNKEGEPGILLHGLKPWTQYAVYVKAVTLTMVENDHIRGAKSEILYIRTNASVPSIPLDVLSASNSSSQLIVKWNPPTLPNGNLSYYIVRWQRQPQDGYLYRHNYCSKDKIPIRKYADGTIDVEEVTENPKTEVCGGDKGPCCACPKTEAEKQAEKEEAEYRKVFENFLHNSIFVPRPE
T1 sequence (Q60751 742-1373 limits assumed): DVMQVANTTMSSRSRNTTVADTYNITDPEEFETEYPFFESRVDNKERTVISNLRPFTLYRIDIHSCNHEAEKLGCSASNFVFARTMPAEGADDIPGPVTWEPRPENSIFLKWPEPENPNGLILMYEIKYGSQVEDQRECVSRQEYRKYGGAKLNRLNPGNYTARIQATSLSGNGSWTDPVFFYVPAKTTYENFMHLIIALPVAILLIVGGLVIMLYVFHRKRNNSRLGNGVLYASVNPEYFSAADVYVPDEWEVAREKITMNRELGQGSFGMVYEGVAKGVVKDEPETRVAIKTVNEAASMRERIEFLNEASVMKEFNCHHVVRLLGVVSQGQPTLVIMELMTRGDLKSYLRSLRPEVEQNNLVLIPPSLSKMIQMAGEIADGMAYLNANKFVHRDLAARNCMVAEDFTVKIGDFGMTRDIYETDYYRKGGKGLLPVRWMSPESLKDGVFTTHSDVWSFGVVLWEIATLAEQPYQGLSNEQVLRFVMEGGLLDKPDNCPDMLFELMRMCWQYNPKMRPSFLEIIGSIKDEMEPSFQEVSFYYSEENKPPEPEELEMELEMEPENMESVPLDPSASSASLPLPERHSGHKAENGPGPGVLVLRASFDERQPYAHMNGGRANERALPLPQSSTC

With “IGF-1: classical ligand of IGF-1R, used at 50 ng/ml for stimulation”, the IGF-1R degradation entry was “almost completely abolished” with IGF-1R [1] (MEF without β-arr1 (β1KO or β1/2 KO)); “drastically downregulated the receptor” with IGF-1R [1] (control MEF and β2KO cells (expressing β-arr1)). Besides, the “Degradation of truncated IGF-1R (Δ1245)” value with IGF-1R [2] is given as “resistant”. Further, the “Time to phosphorylation of the IGF-1R activation loop” value in test [3] is at most 2 min.
